Drawing on paper PMC12023411, “Quaternary stabilization of a GH2 β‐galactosidase from the psychrophile A. ikkensis, a flexible and unstable dimeric enzyme” (Protein Science : A Publication of the Protein Society, 2025), this text covers stoichiometry N, Kd and specific activity for 3 compounds.

For experiment [1], the target named is AiLac triple mutant (V648E, F702L, T742V) (Alkalilactibacillus ikkensis). Briefly: flow-induced dispersion analysis (FIDA); 125 nM (WT) or 60 nM (TM) Alexa Fluor 488-labelled protein as indicator, pre-mixed with unlabelled protein of the same kind, 4 h at 4°C, buffer A; Rh fitted to a monomer-dimer model; constant of dimer to monomers.
The target is the same in experiment [2]. Briefly: mass photometry; TwoMP mass photometer, 21°C; 0.25 μL of a 1 mg/mL (8.4 μM) stock added to 19.75 μL buffer, about 100 nM final.
Experiment [3] addresses GH2 β-galactosidase from Alkalilactibacillus ikkensis (AiLac), wild type (Alkalilactibacillus ikkensis). Briefly: DSF (melting temperature against protein concentration); apparent; SEC-purified AiLac at 3.9 μg/mL to 4 mg/mL, 0.5°C/min, buffer A; tm fitted to the monomer-dimer equation (5); dimer to monomers.
Experiment [4] has the same target. Briefly: SEC-MALS; Superdex 200 10/300 GL Increase, buffer A (PBS + 0.1 mM MgCl2, pH 7.0), room temperature, 0.5 mL/min, 50 μL of 1.5 mg/mL Ni-NTA purified protein loaded. For orientation: Size exclusion chromatography separates by hydrodynamic size, large species first.
For experiment [5] the target is unchanged. Briefly: flow-induced dispersion analysis (FIDA); 125 nM (WT) or 60 nM (TM) Alexa Fluor 488-labelled protein as indicator, pre-mixed with unlabelled protein of the same kind, 4 h at 4°C, buffer A; Rh fitted to a monomer-dimer model; constant of dimer to monomers.
The target is the same in experiment [6]. Briefly: SAXS; 0.40 mg/mL AiLac in 50 mM bis-tris propane, pH 7.0-8.0, 20°C; mass from I(0).
For experiment [7] the target is unchanged. Kind of experiment: SAXS; second peak of the SEC purification, 1.15 mg/mL, buffer A, 20°C, 1800 s; mass from I(0).
Experiment [8] shares this target. Briefly: flow-induced dispersion analysis (FIDA); 125 nM (WT) or 60 nM (TM) Alexa Fluor 488-labelled protein as indicator, pre-mixed with unlabelled protein of the same kind, 4 h at 4°C, buffer A; Rh fitted to a monomer-dimer model; constant of dimer to monomers. The source holds these as a separate data set.
For the next experiment, the target named is T1, EcLac (Escherichia coli, UniProt P00722).
T1 construct: gene lacZ; commercial enzyme purchased from Sigma, lyophilized; homotetramer
Kind of experiment: ONPG hydrolysis, absorbance […] nm. It is filed as biochemical. Conditions: PBS pH 7.0, 0.1 mM MgCl2, 5 mM ONPG, 8 nM enzyme; temperature series.

“And” between values parts separate entries of the source, which are not always exact repeats. Equal entries are not always repeated.

T1 sequence (P00722 whole entry): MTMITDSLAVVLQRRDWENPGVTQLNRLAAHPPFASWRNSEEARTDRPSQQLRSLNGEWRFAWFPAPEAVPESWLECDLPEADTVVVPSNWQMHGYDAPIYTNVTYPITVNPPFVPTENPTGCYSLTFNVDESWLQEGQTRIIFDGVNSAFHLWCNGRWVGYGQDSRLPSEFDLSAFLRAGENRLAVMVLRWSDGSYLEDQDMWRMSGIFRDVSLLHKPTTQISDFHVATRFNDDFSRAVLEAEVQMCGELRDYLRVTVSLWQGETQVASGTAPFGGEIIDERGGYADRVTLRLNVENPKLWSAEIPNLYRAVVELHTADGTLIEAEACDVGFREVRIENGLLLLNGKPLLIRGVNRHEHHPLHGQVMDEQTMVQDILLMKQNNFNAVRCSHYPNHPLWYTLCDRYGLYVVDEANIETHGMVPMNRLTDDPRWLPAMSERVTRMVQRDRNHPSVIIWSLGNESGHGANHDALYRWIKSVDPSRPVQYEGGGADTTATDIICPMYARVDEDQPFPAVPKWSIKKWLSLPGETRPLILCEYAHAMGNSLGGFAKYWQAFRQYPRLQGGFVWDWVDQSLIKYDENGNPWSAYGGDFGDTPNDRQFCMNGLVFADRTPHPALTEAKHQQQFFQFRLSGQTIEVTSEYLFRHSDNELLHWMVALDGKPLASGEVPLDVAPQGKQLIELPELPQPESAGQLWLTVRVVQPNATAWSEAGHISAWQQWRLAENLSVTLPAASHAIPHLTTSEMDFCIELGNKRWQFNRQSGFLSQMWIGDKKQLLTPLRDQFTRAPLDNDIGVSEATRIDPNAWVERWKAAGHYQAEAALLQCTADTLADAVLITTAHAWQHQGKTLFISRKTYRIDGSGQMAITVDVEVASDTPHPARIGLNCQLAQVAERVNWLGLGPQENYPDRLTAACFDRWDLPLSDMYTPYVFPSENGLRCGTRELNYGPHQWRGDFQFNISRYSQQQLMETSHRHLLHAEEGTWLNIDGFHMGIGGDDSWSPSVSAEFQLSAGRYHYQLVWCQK

Take “AiLac triple mutant (V648E, F702L, T742V) (enzyme)”: the stoichiometry N (usually the number of molecules, sites or subunits per partner or assembly) in experiment [1] is 2 and 4; in [2] it was 4.

“GH2 β-galactosidase from Alkalilactibacillus ikkensis (AiLac), wild type (enzyme)”: the values for the Kd in experiment [3], in experiment [5] and in experiment [8] were 150 nM, 230 nM and 300 nM, respectively. The stoichiometry N in experiment [4] is 4 and 2; in experiment [5], 2; in experiment [6], 2; in experiment [7], 1.7 monomers.

Turning to `O=[N+]([O-])c1ccccc1O[C@@H]1O[C@H](CO)[C@H](O)[C@H](O)[C@H]1O` [ONPG], on EcLac, the specific activity entry is “Activity of the AiLac and EcLac (purchased from Sigma) was assessed by hydrolysis of ONPG”.
